{"source": "patent US6987169", "target": "hIK1 intermediate conductance, calcium-activated potassium channel (human) (UniProt O15554)", "sequence (O15554 other isoform, or with tags, fused parts or gaps)": "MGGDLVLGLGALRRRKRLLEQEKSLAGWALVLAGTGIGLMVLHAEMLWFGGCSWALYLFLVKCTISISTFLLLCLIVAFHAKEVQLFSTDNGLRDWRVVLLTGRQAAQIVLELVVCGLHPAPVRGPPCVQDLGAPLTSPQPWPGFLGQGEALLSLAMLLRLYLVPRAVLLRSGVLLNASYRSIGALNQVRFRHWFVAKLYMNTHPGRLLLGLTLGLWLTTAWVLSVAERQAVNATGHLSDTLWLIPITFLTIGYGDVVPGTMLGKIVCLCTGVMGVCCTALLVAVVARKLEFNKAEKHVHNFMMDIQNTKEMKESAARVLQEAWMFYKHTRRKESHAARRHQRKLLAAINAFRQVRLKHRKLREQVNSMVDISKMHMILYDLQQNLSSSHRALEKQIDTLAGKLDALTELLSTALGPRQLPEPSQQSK", "experiment": "cell-based or functional assay", "data": [{"substance": "iberiotoxin (from UniProt P24663 1-37) (peptide)", "values": [{"measurement": "percent block of hIK1 currents at 50 nM", "result": 15, "unit": "%"}]}]}
